Like-named read-outs stand apart in the source and are kept apart here. Square brackets hold non-standard residues; d marks the D form. Ends that are not written are not given here.
Legend:
rat GHRH receptor = target: T1, rat GHRH receptor (rat, UniProt Q02644 23-464); assay: competition with [125I-Tyr10]hGHRH(1-44)-NH2, rat anterior pituitary membrane preparations
T1 construct: whole, on cells; Native tissue membrane preparation; In the in vivo study it is the receptor on rat pituitary somatotrophs; also called rat pituitary GHRH receptor
T1 sequence (looked up): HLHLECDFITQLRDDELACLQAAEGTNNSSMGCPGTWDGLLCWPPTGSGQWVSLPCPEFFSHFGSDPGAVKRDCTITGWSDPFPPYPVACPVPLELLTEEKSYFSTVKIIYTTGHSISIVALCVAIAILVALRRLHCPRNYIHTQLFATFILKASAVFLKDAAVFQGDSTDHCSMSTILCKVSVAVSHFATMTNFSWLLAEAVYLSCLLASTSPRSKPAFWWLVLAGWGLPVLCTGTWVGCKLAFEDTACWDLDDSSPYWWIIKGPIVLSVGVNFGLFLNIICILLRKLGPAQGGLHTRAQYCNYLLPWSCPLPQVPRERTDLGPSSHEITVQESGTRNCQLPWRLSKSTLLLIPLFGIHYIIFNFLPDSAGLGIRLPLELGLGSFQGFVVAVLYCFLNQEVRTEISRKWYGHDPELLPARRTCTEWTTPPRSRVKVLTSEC

human GHRH receptor [1] = target: T2, human GHRH receptor (human, UniProt Q02643 23-423); assay: competition with [125I-Tyr10]hGHRH(1-44)NH2, BHK cell membrane preparations expressing the human GHRH receptor
T2 construct: whole, on cells; Assayed in BHK cell membrane preparations (25 ug protein per tube), not on intact cells; also called hGHRH-R; hGHRH receptor
T2 sequence (looked up): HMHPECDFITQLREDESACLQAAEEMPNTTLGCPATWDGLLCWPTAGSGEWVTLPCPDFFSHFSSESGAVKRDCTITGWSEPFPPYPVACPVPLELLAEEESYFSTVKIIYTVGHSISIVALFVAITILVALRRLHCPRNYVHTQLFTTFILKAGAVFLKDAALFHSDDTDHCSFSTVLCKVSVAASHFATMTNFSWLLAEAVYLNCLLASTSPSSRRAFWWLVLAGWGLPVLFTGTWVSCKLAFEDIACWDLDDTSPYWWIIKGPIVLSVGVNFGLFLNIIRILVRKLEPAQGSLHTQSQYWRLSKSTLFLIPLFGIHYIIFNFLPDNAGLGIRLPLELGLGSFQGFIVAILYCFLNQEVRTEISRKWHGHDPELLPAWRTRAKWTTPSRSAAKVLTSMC
Experimental: (§1) Incubation was carried out at equilibrium (23° C., 60 min) and stopped by centrifugation (12,000 g, 5 min, at 4° C.). The radioactivity content in pellets was determined by gamma counting. […] The Ligand computerized program was used to analyze competition curves of GHRH analogues reported in Tables 2 and 3 and to determine their IC₅₀ (Gaudreau P. et al. (1992) J Med Chem, 35: 1864-1869).
(§2) IC₅₀ is the concentration of peptide inhibiting 50% of ¹²⁵I-GHRH specific binding as determined by the LIGAND program for analysis of competition curves.

human GHRH receptor [2] = target: T2, human GHRH receptor; assay: as above; remark: listed apart in the source
Experimental: as §1, §2

human GHRH receptor [3] = target: T2, human GHRH receptor; assay: competition with [125I-Tyr10]hGHRH(1-44)NH2, BHK cell membrane preparations expressing the human GHRH receptor (reference peptide; its IC50 is not given)
Experimental: as §1, §2

B1: [D-Ala2, Ala8, Ala15, Lys22] hGHRH(1-29)-NH2 (peptide)
peptide: Y[dA]DAIFTASYRKVLAQLSARKKLQDIMSR-NH2
modifications: N-terminus assumed
SMILES: CC[C@H](C)[C@H](NC(=O)[C@H](C)NC(=O)[C@H](CC(=O)O)NC(=O)[C@@H](C)NC(=O)[C@@H](N)Cc1ccc(O)cc1)C(=O)N[C@@H](Cc1ccccc1)C(=O)N[C@H](C(=O)N[C@@H](C)C(=O)N[C@@H](CO)C(=O)N[C@@H](Cc1ccc(O)cc1)C(=O)N[C@@H](CCCNC(=N)N)C(=O)N[C@@H](CCCCN)C(=O)N[C@H](C(=O)N[C@@H](CC(C)C)C(=O)N[C@@H](C)C(=O)N[C@@H](CCC(N)=O)C(=O)N[C@@H](CC(C)C)C(=O)N[C@@H](CO)C(=O)N[C@@H](C)C(=O)N[C@@H](CCCNC(=N)N)C(=O)N[C@@H](CCCCN)C(=O)N[C@@H](CCCCN)C(=O)N[C@@H](CC(C)C)C(=O)N[C@@H](CCC(N)=O)C(=O)N[C@@H](CC(=O)O)C(=O)N[C@H](C(=O)N[C@@H](CCSC)C(=O)N[C@@H](CO)C(=O)N[C@@H](CCCNC(=N)N)C(N)=O)[C@@H](C)CC)C(C)C)[C@@H](C)O
notes: Synthetic 29-residue amide; also called GHRH analogue #1; No. 1
Rat GHRH receptor
  relative binding affinity in rat anterior pituitary (compared to hGHRH(1-29)-NH2): 13.3 fold against hGHRH(1-29)-NH2
Human GHRH receptor [1]
  IC50: 0.033 nM
  relative binding affinity (R1) in comparison with hGHRH(1-29)NH2: 499 ratio IC50 of hGHRH(1-29)-NH2 / IC50 analogue

B2: [Ala8, Ala9, Ala15, Ala22] hGHRH(1-29)-NH2 (peptide)
peptide: YADAIFTAAYRKVLAQLSARKALQDIMSR-NH2
notes: Synthetic 29-residue amide; also called GHRH analogue #2; No. 2
Rat GHRH receptor
  relative binding affinity in rat anterior pituitary (compared to hGHRH(1-29)-NH2): 7.74 fold against hGHRH(1-29)-NH2
Human GHRH receptor [1]
  IC50: 0.77 nM
  relative binding affinity (R1) in comparison with hGHRH(1-29)NH2: 3.7 ratio IC50 of hGHRH(1-29)-NH2 / IC50 analogue

B3: [D-Ala2, D-Tyr10, Lys22] hGHRH(1-29)-NH2 (peptide)
peptide: Y[dA]DAIFTNS[dY]RKVLGQLSARKKLQDIMSR-NH2
modifications: N-terminus assumed
SMILES: CC[C@H](C)[C@H](NC(=O)[C@H](C)NC(=O)[C@H](CC(=O)O)NC(=O)[C@@H](C)NC(=O)[C@@H](N)Cc1ccc(O)cc1)C(=O)N[C@@H](Cc1ccccc1)C(=O)N[C@H](C(=O)N[C@@H](CC(N)=O)C(=O)N[C@@H](CO)C(=O)N[C@H](Cc1ccc(O)cc1)C(=O)N[C@@H](CCCNC(=N)N)C(=O)N[C@@H](CCCCN)C(=O)N[C@H](C(=O)N[C@@H](CC(C)C)C(=O)NCC(=O)N[C@@H](CCC(N)=O)C(=O)N[C@@H](CC(C)C)C(=O)N[C@@H](CO)C(=O)N[C@@H](C)C(=O)N[C@@H](CCCNC(=N)N)C(=O)N[C@@H](CCCCN)C(=O)N[C@@H](CCCCN)C(=O)N[C@@H](CC(C)C)C(=O)N[C@@H](CCC(N)=O)C(=O)N[C@@H](CC(=O)O)C(=O)N[C@H](C(=O)N[C@@H](CCSC)C(=O)N[C@@H](CO)C(=O)N[C@@H](CCCNC(=N)N)C(N)=O)[C@@H](C)CC)C(C)C)[C@@H](C)O
notes: Synthetic 29-residue amide; also called GHRH analogue #3; No. 3
Rat GHRH receptor
  relative binding affinity in rat anterior pituitary (compared to hGHRH(1-29)-NH2): 4.9 fold against hGHRH(1-29)-NH2
Human GHRH receptor [1]
  IC50: 0.0063 nM
  relative binding affinity (R1) in comparison with hGHRH(1-29)NH2: 239 ratio IC50 of hGHRH(1-29)-NH2 / IC50 analogue

B4: [D-Ala2, D-Tyr10, D-Ala15, Lys22] hGHRH(1-29)-NH2 (peptide)
peptide: Y[dA]DAIFTNS[dY]RKVL[dA]QLSARKKLQDIMSR-NH2
modifications: also: acetate salt
notes: also called GHRH analogue #5; human GHRH analogue #5
Rat GHRH receptor
  relative binding affinity in rat anterior pituitary (compared to hGHRH(1-29)-NH2): 1.04 fold against hGHRH(1-29)-NH2
Human GHRH receptor [2]
  IC50: 0.0012 nM
Human GHRH receptor [1]
  IC50: 0.006 nM
  relative binding affinity (R1) in comparison with hGHRH(1-29)NH2: 939 ratio IC50 of hGHRH(1-29)-NH2 / IC50 analogue

B5: [D-Ala2, Ala8, D-Tyr10, Ala15, D-Lys21, Lys22] hGHRH(1-29)-NH2 (peptide)
peptide: Y[dA]DAIFTAS[dY]RKVLAQLSAR[dK]KLQDIMSR-NH2
modifications: N-terminus assumed
SMILES: CC[C@H](C)[C@H](NC(=O)[C@H](C)NC(=O)[C@H](CC(=O)O)NC(=O)[C@@H](C)NC(=O)[C@@H](N)Cc1ccc(O)cc1)C(=O)N[C@@H](Cc1ccccc1)C(=O)N[C@H](C(=O)N[C@@H](C)C(=O)N[C@@H](CO)C(=O)N[C@H](Cc1ccc(O)cc1)C(=O)N[C@@H](CCCNC(=N)N)C(=O)N[C@@H](CCCCN)C(=O)N[C@H](C(=O)N[C@@H](CC(C)C)C(=O)N[C@@H](C)C(=O)N[C@@H](CCC(N)=O)C(=O)N[C@@H](CC(C)C)C(=O)N[C@@H](CO)C(=O)N[C@@H](C)C(=O)N[C@@H](CCCNC(=N)N)C(=O)N[C@H](CCCCN)C(=O)N[C@@H](CCCCN)C(=O)N[C@@H](CC(C)C)C(=O)N[C@@H](CCC(N)=O)C(=O)N[C@@H](CC(=O)O)C(=O)N[C@H](C(=O)N[C@@H](CCSC)C(=O)N[C@@H](CO)C(=O)N[C@@H](CCCNC(=N)N)C(N)=O)[C@@H](C)CC)C(C)C)[C@@H](C)O
notes: Synthetic 29-residue amide; also called GHRH analogue #4; No. 4
Rat GHRH receptor
  relative binding affinity in rat anterior pituitary (compared to hGHRH(1-29)-NH2): 5 fold against hGHRH(1-29)-NH2
Human GHRH receptor [1]
  IC50: 37 nM
  relative binding affinity (R1) in comparison with hGHRH(1-29)NH2: 0.05 ratio IC50 of hGHRH(1-29)-NH2 / IC50 analogue

B6: human GHRH(1-29)NH2 (peptide)
peptide: YADAIFTNSYRKVLGQLSARKLLQDIMSR-NH2
notes: also called hGHRH(1-29)NH2; hGHRH(1-29)-NH2
Human GHRH receptor [3]
  binding result: binds

From patent publication US20090023646A1, “GHRH analogues” (Centre Hospitalier de L'Universite de Montreal (CHUM), priority 2002, published 2009)
